# Key:
# [1] = substrate: O=C(O)C(=O)Cc1ccccc1; assay: PPA decarboxylation; phenylacetaldehyde extracted and measured by GC-MS; format: biochemical, Rosa hybrid cultivar; conditions: 1 mM TPP, 5 mM MgCl2, 0.1 M citrate pH 6.0, 40 °C
# Source text: PPA decarboxylation; phenylacetaldehyde extracted and measured by GC-MS on […] | the kcat/Km value of […] was higher for PPA than for pyruvic acid (PA)
# purified protein = substrate: CC(=O)C(=O)O; assay: purified protein; format: biochemical, Rosa hybrid cultivar; conditions: 1 mM TPP, 5 mM MgCl2, 0.1 M citrate pH 6.0, 40 °C
protein,measurement,setting,value
"RyPPDC (Rosa hybrid cultivar) (protein, recombinant, baculovirus-insect cell (HighFive) expression, purified by DEAE, Phenyl HP and Superdex 200; cDNA from rose petals) MEPSTLIGATPRPTSALLPVVPAAACSGTLGRHLARRLVEIGVHDVFSVPGDFNLTLLDHLIAEPELNLIGCCNELNAGYAADGYARARGVGACVVTFTVGGLSVLNAIAGAYSENLPVICIVGGPNSNDYGTNRILHHTIGLPDFTQELRCFQTVTCHQAVVSHLEDAHELIDTAISTALKESKPVYISISCNLPAIPHPTFGRDPVPFFIAPKVSNQIGLEAAVEATAAFLNKAVKPVLVGGPKLRVAKAQKAFVELADASGYPMAVMPSGKGLVPEHHPHFIGTYWGAVSTSFCGEIVESADAYVFVGPIFNDYSSVGYSLLIKKEKAIIVEPNRVTIGNGPSFGWVFMGDFLTALAKKLKKNSTGMENYCRIFVPPGIPLKAQKDEPLRVNVLFKHIQEIVTPNTAIISETGDSWFNCQKLRLPENCGYEFQMQYGSIGWSVGATLGYAQGAKDKRVIACIGDGSFQVTAQDISTMIRCGQNTIIFLINNGGYTIEVEIHDGPYNVIKNWDYTGLVDAIHNGEGKCWTTKVRTEEDLTEAIAKATGEHKDSLCFIEVFVHKDDTRKELLEWGSRVSAANSRPPNPQ",Km,[1],1.32 ± 0.06 mM
same,kcat,[1],0.0297 ± 0.00033 s⁻¹
same,Km,purified protein,4.70 ± 0.32 mM
same,kcat,purified protein,0.0215 ± 0.0005 s⁻¹
